Test results taken from PMC10810954, “Structural and functional insights into the lipid regulation of human anion exchanger 2” (Nature Communications, 2024).

B1: Full-length canonical human AE2 (isoform 1), wild type (natural protein, UniProt P04920-1 1-1241, looked up)
chain: MSSAPRRPAKGADSFCTPEPESLGPGTPGFPEQEEDELHRTLGVERFEEILQEAGSRGGEEPGRSYGEEDFEYHRQSSHHIHHPLSTHLPPDARRRKTPQGPGRKPRRRPGASPTGETPTIEEGEEDEDEASEAEGARALTQPSPVSTPSSVQFFLQEDDSADRKAERTSPSSPAPLPHQEATPRASKGAQAGTQVEEAEAEAVAVASGTAGGDDGGASGRPLPKAQPGHRSYNLQERRRIGSMTGAEQALLPRVPTDEIEAQTLATADLDLMKSHRFEDVPGVRRHLVRKNAKGSTQSGREGREPGPTPRARPRAPHKPHEVFVELNELLLDKNQEPQWRETARWIKFEEDVEEETERWGKPHVASLSFRSLLELRRTLAHGAVLLDLDQQTLPGVAHQVVEQMVISDQIKAEDRANVLRALLLKHSHPSDEKDFSFPRNISAGSLGSLLGHHHGQGAESDPHVTEPLMGGVPETRLEVERERELPPPAPPAGITRSKSKHELKLLEKIPENAEATVVLVGCVEFLSRPTMAFVRLREAVELDAVLEVPVPVRFLFLLLGPSSANMDYHEIGRSISTLMSDKQFHEAAYLADEREDLLTAINAFLDCSVVLPPSEVQGEELLRSVAHFQRQMLKKREEQGRLLPTGAGLEPKSAQDKALLQMVEAAGAAEDDPLRRTGRPFGGLIRDVRRRYPHYLSDFRDALDPQCLAAVIFIYFAALSPAITFGGLLGEKTQDLIGVSELIMSTALQGVVFCLLGAQPLLVIGFSGPLLVFEEAFFSFCSSNHLEYLVGRVWIGFWLVFLALLMVALEGSFLVRFVSRFTQEIFAFLISLIFIYETFYKLVKIFQEHPLHGCSASNSSEVDGGENMTWAGARPTLGPGNRSLAGQSGQGKPRGQPNTALLSLVLMAGTFFIAFFLRKFKNSRFFPGRIRRVIGDFGVPIAILIMVLVDYSIEDTYTQKLSVPSGFSVTAPEKRGWVINPLGEKSPFPVWMMVASLLPAILVFILIFMETQITTLIISKKERMLQKGSGFHLDLLLIVAMGGICALFGLPWLAAATVRSVTHANALTVMSKAVAPGDKPKIQEVKEQRVTGLLVALLVGLSIVIGDLLRQIPLAVLFGIFLYMGVTSLNGIQFYERLHLLLMPPKHHPDVTYVKKVRTLRMHLFTALQLLCLALLWAVMSTAASLAFPFILILTVPLRMVVLTRIFTDREMKCLDANEAEPVFDEREGVDEYNEMPMPV
notes: Anion exchanger 2 (AE2, SLC4A2), human, isoform a, UniProtKB P04920-1, full length; Full-length protein was purified, but only the TMDs are resolved in the map; the NTD, parts of EL3, EL4, EL6 and the C-terminus are not modelled; also called Anion exchanger 2; hAE2; source: HEK293F (FreeStyle 293 F) cells, BacMam system, purified (LMNG/CHS extraction, Ni-NTA, TEV, Superose 6 in GDN); not shown: …
B2: Full-length human AE2 with R932A/K1147A/H1148A mutations (natural protein, UniProt P04920-1 1-1241, looked up)
chain: MSSAPRRPAKGADSFCTPEPESLGPGTPGFPEQEEDELHRTLGVERFEEILQEAGSRGGEEPGRSYGEEDFEYHRQSSHHIHHPLSTHLPPDARRRKTPQGPGRKPRRRPGASPTGETPTIEEGEEDEDEASEAEGARALTQPSPVSTPSSVQFFLQEDDSADRKAERTSPSSPAPLPHQEATPRASKGAQAGTQVEEAEAEAVAVASGTAGGDDGGASGRPLPKAQPGHRSYNLQERRRIGSMTGAEQALLPRVPTDEIEAQTLATADLDLMKSHRFEDVPGVRRHLVRKNAKGSTQSGREGREPGPTPRARPRAPHKPHEVFVELNELLLDKNQEPQWRETARWIKFEEDVEEETERWGKPHVASLSFRSLLELRRTLAHGAVLLDLDQQTLPGVAHQVVEQMVISDQIKAEDRANVLRALLLKHSHPSDEKDFSFPRNISAGSLGSLLGHHHGQGAESDPHVTEPLMGGVPETRLEVERERELPPPAPPAGITRSKSKHELKLLEKIPENAEATVVLVGCVEFLSRPTMAFVRLREAVELDAVLEVPVPVRFLFLLLGPSSANMDYHEIGRSISTLMSDKQFHEAAYLADEREDLLTAINAFLDCSVVLPPSEVQGEELLRSVAHFQRQMLKKREEQGRLLPTGAGLEPKSAQDKALLQMVEAAGAAEDDPLRRTGRPFGGLIRDVRRRYPHYLSDFRDALDPQCLAAVIFIYFAALSPAITFGGLLGEKTQDLIGVSELIMSTALQGVVFCLLGAQPLLVIGFSGPLLVFEEAFFSFCSSNHLEYLVGRVWIGFWLVFLALLMVALEGSFLVRFVSRFTQEIFAFLISLIFIYETFYKLVKIFQEHPLHGCSASNSSEVDGGENMTWAGARPTLGPGNRSLAGQSGQGKPRGQPNTALLSLVLMAGTFFIAFFLRKFKNSRFFPGRIARVIGDFGVPIAILIMVLVDYSIEDTYTQKLSVPSGFSVTAPEKRGWVINPLGEKSPFPVWMMVASLLPAILVFILIFMETQITTLIISKKERMLQKGSGFHLDLLLIVAMGGICALFGLPWLAAATVRSVTHANALTVMSKAVAPGDKPKIQEVKEQRVTGLLVALLVGLSIVIGDLLRQIPLAVLFGIFLYMGVTSLNGIQFYERLHLLLMPPAAHPDVTYVKKVRTLRMHLFTALQLLCLALLWAVMSTAASLAFPFILILTVPLRMVVLTRIFTDREMKCLDANEAEPVFDEREGVDEYNEMPMPV
notes: No PIP2 in the map; NTD resolved; also called AE2_(IF/REST); mutant AE2; not shown: GFP, C-terminal, cleaved; His tag, C-terminal, cleaved

Molecular target: the molecule itself
Experiment: cryo-EM structure; purified AE2 in 50 μM GDN, 150 mM NaCl, 20 mM HEPES pH 7.4; Titan Krios 300 kV; homodimer

| Protein | stoichiometry N |
| --- | --- |
| B1 | 2 |
| B2 | 2 |
